42 sequences from the supplement of paper PMC7877785 can be followed below.

A short description of the data set: self-splicing fitness, log relative to wild type (ln ratio); higher = more splicing; Tetrahymena group I intron in knt gene, E. coli kanamycin selection, DiMSum; sequences stand for … in CUCUCU…GGAGGGAAAAGUUAUCAGGCAUGCACCUGGUAGCUAGUCUUUAAACCAAUAGAUUGCAUCGGUUUAAAAGGCAAGACCGUCAAAUUGCGGGAAAGGGGUCAACAGCCGUUCAGUACCAAGUCUCAGGGGAAACUUUGAGAUGGCCUUGCAAAGGGUAUGGUAAUAAGCUGACGGACAUGGUCCUAACCACGCAGCCAAGUCCUAAGUCAACAGAUCUUCUGUUGAUAUGGAUGCAGUUCACAGACUAAAUGUCGGUCGGGGAAGAUGUAUUCUUCUCAUAAGAUAUAGUCGGACCUCUCCUUAAUGGGAGCUAGCGGAUGAAGUGAUGCAACACUGGAGCCGCUGGGAACUAAUUUGUAUGCGAAAGUAUAUUGAUUAGUUUUGGAGUACUCGUGGUCG
In a few lines:
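DiMSum derived fitness as the error-weighted combination of fold changes across replicates, kanamycin versus no kanamycin, normalised to wild type. E. coli BL21(DE3) held the library, which randomised all eight P1ex-region intron nucleotides within the knt kanamycin-resistance gene on pET-22b(+). Six replicate transformations grew overnight at 37°C or 30°C on LB agar with or without 25 μg/mL kanamycin, also containing 100 μg/mL carbenicillin, 50 μM IPTG and 0.2% rhamnose, and pooled colonies were amplicon-sequenced on an Illumina HiSeq 2500.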

± gives the uncertainty stated by the source.

As for AGCCAGCAAUAUUACGUUCC, the “self-splicing fitness (ln)” value by setting is: (30 °C) -2.02 ± 0.17; (37 °C) -2.04 ± 0.28. As to UACGAGCAAUAUUACGUCGA, the “self-splicing fitness (ln)” value is, setting by setting: (30 °C) -2.65 ± 0.42; (37 °C) -1.45 ± 0.25. Regarding AACUAGCAAUAUUACGCCCA, the “self-splicing fitness (ln)” value is -0.951 ± 0.14 (30 °C) and 0.0227 ± 0.17 (37 °C).

With GCGAAGCAAUAUUACGCAUU, the “self-splicing fitness (ln)” value (30 °C) was -2.56 ± 0.17 and the “self-splicing fitness (ln)” value (37 °C) is -2.15 ± 0.19.

With AUUUAGCAAUAUUACGGUUU, the “self-splicing fitness (ln)” value is, setting by setting: (30 °C) -1.02 ± 0.096; (37 °C) -0.0857 ± 0.12. The corresponding values for UCAAAGCAAUAUUACGUAGC are -4 ± 0.31 and -2.52 ± 0.27. As for CCUGAGCAAUAUUACGUGCC, where the note is “37 °C”, the “self-splicing fitness (ln)” value was -1.6 ± 0.32.

As for ACUUAGCAAUAUUACGUUCG, the “self-splicing fitness (ln)” value is -1.52 ± 0.18 (30 °C) and -0.802 ± 0.18 (37 °C). Consider UAUGAGCAAUAUUACGUUGA, for which the “self-splicing fitness (ln)” value was -2.96 ± 0.26 (30 °C) and -1.25 ± 0.17 (37 °C). On the same counts, the results for UCAAAGCAAUAUUACGUUGU are -3.4 ± 0.13 and -2.02 ± 0.12. For CGUUAGCAAUAUUACGAAGU, the “self-splicing fitness (ln)” value (30 °C) was -2.41 ± 0.34 and the “self-splicing fitness (ln)” value (37 °C) is -1.29 ± 0.3. Regarding CUAAAGCAAUAUUACGAGCU, the “self-splicing fitness (ln)” value is -4.12 ± 0.26 (30 °C) and -2.82 ± 0.38 (37 °C). With CGGGAGCAAUAUUACGAGAU, the “self-splicing fitness (ln)” value (37 °C) is -2.17 ± 0.35. In the case of CGCAAGCAAUAUUACGAGGA, the “self-splicing fitness (ln)” value is, setting by setting: (30 °C) -3.23 ± 0.24; (37 °C) -2.81 ± 0.29. As for GAUUAGCAAUAUUACGCGCU, for the setting “37 °C”, the “self-splicing fitness (ln)” value is -1.92 ± 0.4. As for GGGCAGCAAUAUUACGAGUG, the “self-splicing fitness (ln)” value reads like this: (30 °C) -3.47 ± 0.24; (37 °C) -1.64 ± 0.13.

Take CCUGAGCAAUAUUACGCCAG: the “self-splicing fitness (ln)” value was -2.75 ± 0.41 (30 °C) and -1.62 ± 0.32 (37 °C). Take UUUCAGCAAUAUUACGGCCG: the “self-splicing fitness (ln)” value (30 °C) was -0.936 ± 0.17 and the “self-splicing fitness (ln)” value (37 °C) is -0.968 ± 0.26.

CCUAAGCAAUAUUACGAAUC: the “self-splicing fitness (ln)” value (30 °C) is -0.765 ± 0.2. Turning to AGGCAGCAAUAUUACGGCCA, the “self-splicing fitness (ln)” value reads like this: (30 °C) -1.07 ± 0.15; (37 °C) -0.0424 ± 0.21. Turning to CACUAGCAAUAUUACGUAAU, the “self-splicing fitness (ln)” value is -3.08 ± 0.22 (30 °C) and -2.54 ± 0.2 (37 °C). As for CUUGAGCAAUAUUACGUGGA, the “self-splicing fitness (ln)” value reads like this: (30 °C) -2.88 ± 0.24; (37 °C) -3.25 ± 0.33. As to CCGGAGCAAUAUUACGUUUA, the “self-splicing fitness (ln)” value (37 °C) was -1.99 ± 0.25. Consider GUCUAGCAAUAUUACGCUGA, for which the “self-splicing fitness (ln)” value is -1.21 ± 0.16 (30 °C) and -0.707 ± 0.13 (37 °C). Turning to GAGAAGCAAUAUUACGUAGU, the “self-splicing fitness (ln)” value reads like this: (30 °C) -2.89 ± 0.094; (37 °C) -1.39 ± 0.097. Consider UUAAAGCAAUAUUACGUGGU, for which the “self-splicing fitness (ln)” value is, setting by setting: (30 °C) -3.26 ± 0.12; (37 °C) -2.73 ± 0.15. As to UGCUAGCAAUAUUACGCCUG, the “self-splicing fitness (ln)” value runs as follows: (30 °C) -0.427 ± 0.18; (37 °C) 0.294 ± 0.2. Turning to CCCAAGCAAUAUUACGCCGA, under “30 °C”, the “self-splicing fitness (ln)” value is -2.01 ± 0.32.

As for AGUGAGCAAUAUUACGCAGG, for the setting “37 °C”, the “self-splicing fitness (ln)” value is -2.65 ± 0.48. For the sequence GGGAAGCAAUAUUACGCCAA, the “self-splicing fitness (ln)” value is -1.66 ± 0.095 (30 °C) and -0.896 ± 0.1 (37 °C). On the same counts, the results for CAGAAGCAAUAUUACGCAGC are -3.43 ± 0.23 and -2.35 ± 0.24. As for CCGAAGCAAUAUUACGGUCC, the “self-splicing fitness (ln)” value (30 °C) was -3.68 ± 0.46 and the “self-splicing fitness (ln)” value (37 °C) was -2.26 ± 0.26. In the case of UUAGAGCAAUAUUACGUGCA, the “self-splicing fitness (ln)” value (30 °C) was -2.16 ± 0.15 and the “self-splicing fitness (ln)” value (37 °C) is -0.652 ± 0.16. Take CAUGAGCAAUAUUACGUGCG: the “self-splicing fitness (ln)” value was -1.75 ± 0.077 (30 °C) and -0.908 ± 0.083 (37 °C).

For the sequence GUUGAGCAAUAUUACGGUCG, under “37 °C”, the “self-splicing fitness (ln)” value was -1.73 ± 0.34. Turning to CGCCAGCAAUAUUACGCCCG, the “self-splicing fitness (ln)” value is -1.47 ± 0.14 (30 °C) and -0.959 ± 0.19 (37 °C). Regarding AACUAGCAAUAUUACGACGC, the “self-splicing fitness (ln)” value was -0.567 ± 0.1 (30 °C) and -0.205 ± 0.15 (37 °C). As to GGUGAGCAAUAUUACGAUAA, under “30 °C”, the “self-splicing fitness (ln)” value is -1.22 ± 0.47. Turning to ACUAAGCAAUAUUACGGGAU, the “self-splicing fitness (ln)” value is, setting by setting: (30 °C) -2.17 ± 0.073; (37 °C) -1.3 ± 0.097.

Take ACUUAGCAAUAUUACGCUAC: the “self-splicing fitness (ln)” value runs as follows: (30 °C) -2.59 ± 0.34; (37 °C) -1.9 ± 0.33. On to ACGGAGCAAUAUUACGCGUU, for which, for the setting “37 °C”, the “self-splicing fitness (ln)” value was -1.9 ± 0.21. UCAUAGCAAUAUUACGUAUG: the “self-splicing fitness (ln)” value by setting is: (30 °C) -3.28 ± 0.16; (37 °C) -2.09 ± 0.11.
